Ends that are not written are not given here. Peptide text beside a SMILES is read from it. * marks the point of attachment. Fmoc = O=C(OCC1c2ccccc2-c2ccccc21)*
Assays:
[1] = Solubility in aqueous solutions; format: physicochemical
[2] = ThT fluorescence of self-assembled peptide 2 in assay buffer; conditions: peptide 2 0.58 mg/mL in assay buffer, ThT 90 μM
Method: β-sheet rich nanoplatelet formation by self-assembly of peptide 2. […] Nano Lett. 2017, 17 (9), 5546-5554). […] ThT (90 μM) addition to this solution yielded a bright fluorescence with an emission maximum of about 490 nm (see FIG. 2).

cathepsin B = target: T1, cathepsin B (Homo sapiens, UniProt P07858); assay: Cathepsin B assay with peptide 3 and ThT; format: biochemical; conditions: after treatment with cathepsin B (1000 ng/mL vs 0 ng/mL)
T1 construct: purchased Bio-Techne
Method: Peptide 3 was prepared as a 2.0 mg/mL solution in 1× phosphate buffered saline, pH 7.4 and 5% DMSO. In a typical assay experiment, 50 μL of the peptide 3 solution was mixed 50 μL of 50 mM MES buffer, pH 5 with cathepsin B at a concentration between about 0 and about 1000 ng/mL in a 96-well microplate and the plate was incubated at 37° C. for 2 hours. Then, 10 μL of 0.1 μm-filtered 1 mM aqueous ThT solution was added to each well and mixed for a final concentration of 90 μM ThT. After 15-30 min incubation at room temperature, the ThT fluorescence was measured at room temperature using a Tecan Spark 20M microplate reader.

[3] = target: T2, Peptide 1 (Fmoc-Phe-Lys-Phe-Glu-Ala-Ala-Asn-Gly-Glu-Glu-Gly-Ser-Gly-Glu-Glu)
T2 chain: FKFEAANGEEGSGEE

[4] = target: the molecule itself; assay: self-assembly of peptide 2 in assay buffer; centrifugation, TEM, AFM
Method: Transmission electron microscopy (TEM) and atomic force microscopy (AFM) imaging. […] After incubating at 37° C. for 2.0 hours, the formed aggregates were collected by centrifugation and resuspended in ultrapure water. […] TEM images were taken using a Tecnai microscope (FEI). To prepare TEM samples, 5 μL of solutions were placed on carbon film 200 copper mesh TEM grids. Samples were incubated on TEM grids for about 5 minutes and bloated and air dried. Uranyl acetate was prepared in distilled water at 2% w/v and filtered with a 0.1 μm syringe filter before each use. A 20 μl droplet of this solution was placed on Parafilm and the TEM grid was floated on it for 7 minutes. Excess uranyl acetate was blotted using Whatman paper, and the sample is left to dry at room temperature.
The morphology of these structures was investigated using transmission electron microscopy (TEM) and atomic force microscopy (AFM). […] AFM experiments were performed to further analyze the morphology of self-assembled nano-platelets.

[5] = target: the molecule itself; assay: circular dichroism of peptide 1 alone (self-assembly)

C[C@H](NC(=O)[C@H](C)NC(=O)[C@H](CCC(=O)O)NC(=O)[C@H](Cc1ccccc1)NC(=O)[C@H](CCCCN)NC(=O)[C@H](Cc1ccccc1)NC(=O)OCC1c2ccccc2-c2ccccc21)C(=O)N[C@@H](CC(N)=O)C(=O)O [peptide 2, Fmoc-FKFEAAN] (Fmoc-FKFEAAN-OH)
solubility in aqueous solutions [1]: not soluble in aqueous solutions
enhancement in the ThT fluorescence intensity [2]: 45 fold

Fmoc-FKFELAGGAGEEGSGEEE [peptide 3, cathepsin B substrate motif LAGGAG in place of the legumain substrate]
increase in ThT fluorescence (cathepsin B): ≤ 72 fold

B1: Recombinant mouse legumain (protein)
chain: VPVGVDDPEDGGKHWVVIVAGSNGWYNYRHQADACHAYQIIHRNGIPDEQIIVMMYDDIANSEENPTPGVVINRPNGTDVYKGVLKDYTGEDVTPENFLAVLRGDAEAVKGKGSGKVLKSGPRDHVFIYFTDHGATGILVFPNDDLHVKDLNKTIRYMYEHKMYQKMVFYIEACESGSMMNHLPDDINVYATTAANPKESSYACYYDEERGTYLGDWYSVNWMEDSDVEDLTKETLHKQYHLVKSHTNTSHVMQYGNKSISTMKVMQFQGMKHRASSPISLPPVTHLDLTPSPDVPLTILKRKLLRTNDVKESQNLIGQIQQFLDARHVIEKSVHKIVSLLAGFGETAERHLSERTMLTAHDCYQEAVTHFRTHCFNWHSVTYEHALRYLYVLANLCEAPYPIDRIEMAMDKVCLSHY
LC-MS, fraction of peptide 1 cleaved [3]: almost 30% of the peptide was cleaved by legumain
ON/OFF ratio of the assay in albumin depleted 20% plasma [3]: improve the ON/OFF ratio of the assay to about 10
ThT emission enhancement at 1 mg/mL peptide 1 (500 ng/mL legumain) [3]: a 28-fold enhancement in its emission was obtained at 1 mg/mL peptide concentration
ThT emission intensity enhancement at 1000 ng/mL legumain (1.0 mg/mL peptide 1, 2 h) [3]: about 32 fold at 1000 ng/mL legumain concentration
ThT emission intensity increase at peptide 1 below 0.25 mg/mL (500 ng/mL legumain) [3]: minimal (1.3-1.4 fold)
ThT fluorescence enhancement at 10.0 ng/mL legumain [3]: a slight (about 1.3 fold) fluorescence enhancement was obtained at the legumain concentration of 10.0 ng/mL
ThT fluorescence enhancement at 25.0 ng/mL legumain [3]: an easily detectable (about 3-fold) fluorescence enhancement was detected at 25.0 ng/mL
ThT fluorescence enhancement in 10% plasma (1000 ng/mL legumain, 25 µM ThT) [3]: a fluorescence enhancement of about 20 fold was obtained in 10% plasma at the legumain concentration of 1000 ng/mL
ThT fluorescence enhancement in 20% human plasma (1000 ng/mL legumain, 90 µM ThT) [3]: a detectable fluorescence enhancement (about 2.5 fold)
ThT fluorescence intensity at 24 hours relative to 2 hours (1000 ng/mL legumain) [3]: at 24 hours, the fluorescence intensity was about 2.5 higher compared with the intensity at two hours
limit of detection (LOD) of legumain in the peptide 1 / ThT assay [3]: about 12 ng/mL (0.21 nM)
limit of quantification (LOQ) of legumain in the peptide 1 / ThT assay [3]: about 25 ng/mL (0.45 nM)
minimum detectable legumain concentration in 10% plasma [3]: a minimum detectable concentration between 50 ng/mL to 200 ng/mL

B2: Peptide 2 (Fmoc-FKFEAAN) (peptide)
peptide: Fmoc-FKFEAAN
notes: Synthetic peptide bought from GenScript (1048.2 g/mol); It is also the product of hydrolysis of peptide 1 by legumain; It self-assembles into many-copy nanoplatelets; also called protein 2; self-assembly precursor
binding result [4]: binds

B3: Peptide 1 (Fmoc-Phe-Lys-Phe-Glu-Ala-Ala-Asn-Gly-Glu-Glu-Gly-Ser-Gly-Glu-Glu) (peptide)
peptide: Fmoc-FKFEAANGEEGSGEE
notes: also called protein 1; the probe
binding result [5]: no binding (tested: 0.333 mg/mL)
